Assays:
[1] = target: Caldanaerovirga acetigignens double ferritin-like protein (Caldanaerovirga acetigignens); assay: SEC-MALS
[2] = target: Thermocrinis minervae double ferritin-like protein (Thermocrinis minervae); assay: SEC-MALS
[3] = target: Thermocrinis minervae double ferritin-like protein (Thermocrinis minervae); assay: SEC-SAXS

| stoichiometry N [1] | stoichiometry N [2] | stoichiometry N [3] | Substance |
| --- | --- | --- | --- |
| 2 | – | – | Caldanaerovirga acetigignens double ferritin-like protein (enzyme) |
| – | 2 | 2 | Thermocrinis minervae double ferritin-like protein (enzyme) |
